Laboratory results reported in the Immune Epitope Database (IEDB).

How the values were obtained:
[1] = target: HLA-A*02:01; test: IEDB peptide-MHC binding, purified MHC/competitive/fluorescence; filed as Kd, often an IC50 or EC50 that approximates it; ≥ and ≤ were set here for values at or beyond the usual limits of such assays
[2] = target: HLA-A*02:03; test: as above; conditions: source organism: Giardia lamblia ATCC 50803
[3] = target: HLA-A*02:11; test: as above; conditions: source organism: Giardia lamblia ATCC 50803
[4] = target: HLA-A*02:12; test: as above; conditions: source organism: Giardia lamblia ATCC 50803
[5] = target: HLA-A*02:19; test: as above; conditions: source organism: Giardia lamblia ATCC 50803
[6] = target: HLA-A*03:01; test: as above; conditions: source organism: Giardia lamblia ATCC 50803
[7] = target: HLA-A*24:03; test: as above; conditions: source organism: Giardia lamblia ATCC 50803
[8] = target: HLA-A*26:01; test: as above
[9] = target: HLA-A*29:02; test: as above; conditions: source organism: Giardia lamblia ATCC 50803
[10] = target: HLA-B*15:01; test: as above
[11] = target: HLA-B*15:17; test: as above
[12] = target: HLA-B*18:01; test: as above
[13] = target: HLA-B*27:03; test: as above
[14] = target: HLA-B*39:01; test: as above
[15] = target: HLA-B*46:01; test: as above
[16] = target: HLA-B*51:01; test: as above
[17] = target: HLA-B*57:01; test: as above
[18] = target: HLA-A*01:01; test: IEDB peptide-MHC binding, purified MHC/direct/fluorescence; filed as Kd, often an IC50 or EC50 that approximates it; ≥ and ≤ were set here for values at or beyond the usual limits of such assays; conditions: source organism: Escherichia coli O157:H7
[19] = target: HLA-A*03:01; test: as above
[20] = target: HLA-A*11:01; test: as above
[21] = target: HLA-A*31:01; test: as above; conditions: source organism: Escherichia coli O157:H7
[22] = target: HLA-B*27:05; test: as above; conditions: source organism: Escherichia coli O157:H7
[23] = target: HLA-B*40:01; test: as above; conditions: source organism: Escherichia coli O157:H7
[24] = target: HLA-B*46:01; test: as above; conditions: source organism: Escherichia coli O157:H7
[25] = target: HLA-B*48:01; test: as above; conditions: source organism: Escherichia coli O157:H7
[26] = target: HLA-B*57:01; test: as above; conditions: source organism: Escherichia coli O157:H7
[27] = target: HLA-B*58:01; test: as above; conditions: source organism: Escherichia coli O157:H7
[28] = target: HLA-A*69:01; test: IEDB peptide-MHC binding, purified MHC/competitive/fluorescence; filed as Kd, often an IC50 or EC50 that approximates it; ≥ and ≤ were set here for values at or beyond the usual limits of such assays
[29] = target: HLA-B*08:01; test: as above
[30] = target: HLA-B*39:01; test: IEDB peptide-MHC binding, purified MHC/direct/fluorescence; filed as Kd, often an IC50 or EC50 that approximates it; ≥ and ≤ were set here for values at or beyond the usual limits of such assays; conditions: source organism: Camelpox virus M-96
[31] = target: HLA-A*24:02; test: IEDB peptide-MHC binding, purified MHC/competitive/fluorescence; ≥ and ≤ were set here for values at or beyond the usual limits of such assays; conditions: source organism: Sudan ebolavirus
[32] = target: HLA-B*15:01; test: as above; conditions: source organism: Sudan ebolavirus
[33] = target: HLA-A*02:03; test: IEDB peptide-MHC binding, purified MHC/direct/fluorescence; filed as Kd, often an IC50 or EC50 that approximates it; ≥ and ≤ were set here for values at or beyond the usual limits of such assays
[34] = target: HLA-A*02:11; test: as above
[35] = target: HLA-A*02:12; test: as above
[36] = target: HLA-A*02:16; test: as above
[37] = target: HLA-A*02:19; test: as above
[38] = target: HLA-A*23:01; test: as above
[39] = target: HLA-A*24:03; test: as above
[40] = target: HLA-A*29:02; test: as above
[41] = target: HLA-A*68:02; test: as above
[42] = target: HLA-B*15:01; test: as above; conditions: source organism: Ebola virus - Eckron (Zaire, 1976)
[43] = target: HLA-B*15:42; test: IEDB peptide-MHC binding, purified MHC/competitive/fluorescence; filed as Kd, often an IC50 or EC50 that approximates it; ≥ and ≤ were set here for values at or beyond the usual limits of such assays; conditions: source organism: Vibrio parahaemolyticus RIMD 2210633
[44] = target: HLA-B*45:06; test: as above; conditions: source organism: Vibrio parahaemolyticus RIMD 2210633
[45] = target: HLA-B*83:01; test: as above; conditions: source organism: Vibrio parahaemolyticus RIMD 2210633
[46] = target: HLA-B*51:01; test: IEDB peptide-MHC binding, purified MHC/direct/fluorescence; filed as Kd, often an IC50 or EC50 that approximates it; ≥ and ≤ were set here for values at or beyond the usual limits of such assays; conditions: source organism: Homo sapiens
[47] = source organism: Giardia lamblia ATCC 50803
[48] = source organism: Escherichia coli O157:H7
[49] = source organism: Escherichia coli O157:H7 str. EDL933
[50] = source organism: Zaire ebolavirus
[51] = source organism: Vibrio parahaemolyticus RIMD 2210633

How did the Kd [1, 47] turn out when AILAGEHKC was run?
The Kd was at least 20 µM.

And the Kd [2]?
The Kd was at least 20 µM.

And the Kd [3]?
Its Kd is at least 20 µM.

And the Kd [4]?
The Kd was 3.73 µM.

What about the Kd [5] of the same sequence?
Its Kd is at least 20 µM.

And the Kd [6]?
The Kd was at least 20 µM.

What about the Kd [7] of the same sequence?
The Kd was at least 20 µM.

What about the Kd [8, 47] of the same sequence?
The Kd was at least 20 µM.

What about the Kd [9] of the same sequence?
The Kd was at least 20 µM.

What about the Kd [10, 47] of the same sequence?
The Kd was at least 20 µM.

What about the Kd [11, 47] of the same sequence?
Its Kd is at least 20 µM.

What about the Kd [12, 47] of the same sequence?
The Kd was at least 20 µM.

And the Kd [13, 47]?
The Kd was at least 20 µM.

And the Kd [14, 47]?
The Kd was at least 20 µM.

And the Kd [15, 47]?
Its Kd is at least 20 µM.

And the Kd [16, 47]?
The Kd was at least 20 µM.

And the Kd [17, 47]?
Its Kd is at least 20 µM.

Which results are given for FIVEHINAM?
Kd [18]: ≥ 20 µM; Kd [19, 48]: ≥ 20 µM; Kd [20, 48]: ≥ 20 µM; Kd [21]: ≥ 20 µM; Kd [22]: ≥ 20 µM; Kd [23]: ≥ 20 µM; Kd [24]: 0.232 µM; Kd [25]: ≥ 20 µM; Kd [26]: ≥ 20 µM; Kd [27]: ≥ 20 µM; Kd [1, 49]: 0.0104 µM; Kd [28, 49]: 0.68 µM; Kd [29, 49]: 0.91 µM; Kd [10, 49]: 0.0925 µM

How did the Kd [30] turn out when HHDPILNGL was run?
The Kd was 0.0426 µM.

With ILNRKAIDF as the sequence, how does the IC50 [31] read?
Its IC50 is 3.28 µM.

What about the IC50 [32] of the same sequence?
Its IC50 is 12.5 µM.

What about the Kd [33, 50] of the same sequence?
The Kd was at least 20 µM.

What about the Kd [34, 50] of the same sequence?
The Kd was at least 20 µM.

What about the Kd [35, 50] of the same sequence?
The Kd was at least 20 µM.

What about the Kd [36, 50] of the same sequence?
Its Kd is at least 20 µM.

What about the Kd [37, 50] of the same sequence?
Its Kd is at least 20 µM.

And the Kd [19, 50]?
Its Kd is at least 20 µM.

And the Kd [38, 50]?
The Kd was at least 20 µM.

And the Kd [39, 50]?
Its Kd is at least 20 µM.

And the Kd [40, 50]?
Its Kd is at least 20 µM.

What about the Kd [41, 50] of the same sequence?
The Kd was at least 20 µM.

And the Kd [42]?
The Kd was 0.372 µM.

What about the Kd [1, 50] of the same sequence?
The Kd was at least 20 µM.

What about the Kd [8, 50] of the same sequence?
The Kd was at least 20 µM.

And the Kd [28, 50]?
The Kd was at least 20 µM.

What about the Kd [11, 50] of the same sequence?
The Kd was at least 20 µM.

And the Kd [12, 50]?
The Kd was at least 20 µM.

What about the Kd [13, 50] of the same sequence?
Its Kd is at least 20 µM.

And the Kd [14, 50]?
Its Kd is at least 20 µM.

And the Kd [15, 50]?
Its Kd is at least 20 µM.

What about the Kd [16, 50] of the same sequence?
Its Kd is at least 20 µM.

What about the Kd [17, 50] of the same sequence?
Its Kd is at least 20 µM.

With MQQGRFPPL as the sequence, how does the Kd ([29]; source organism: Yersinia pestis CO92) read?
Its Kd is 0.34 µM.

For SMNYPNSYK, which Kd [33, 51] is on record?
Its Kd is at least 20 µM.

What about the Kd [34, 51] of the same sequence?
The Kd was at least 20 µM.

And the Kd [35, 51]?
Its Kd is at least 20 µM.

And the Kd [36, 51]?
The Kd was at least 20 µM.

And the Kd [37, 51]?
The Kd was at least 20 µM.

And the Kd [20, 51]?
The Kd was at most 0.001 µM.

And the Kd [38, 51]?
The Kd was at least 20 µM.

And the Kd [39, 51]?
Its Kd is at least 20 µM.

What about the Kd [40, 51] of the same sequence?
The Kd was at least 20 µM.

And the Kd [41, 51]?
The Kd was at least 20 µM.

And the Kd [1, 51]?
Its Kd is at least 20 µM.

And the Kd [8, 51]?
The Kd was at least 20 µM.

What about the Kd [28, 51] of the same sequence?
Its Kd is at least 20 µM.

What about the Kd [11, 51] of the same sequence?
The Kd was at least 20 µM.

And the Kd [43]?
Its Kd is at least 5 µM.

What about the Kd [12, 51] of the same sequence?
The Kd was at least 20 µM.

What about the Kd [14, 51] of the same sequence?
The Kd was at least 20 µM.

And the Kd [44]?
The Kd was at least 5 µM.

And the Kd [15, 51]?
The Kd was at least 20 µM.

What about the Kd [16, 51] of the same sequence?
The Kd was at least 20 µM.

What about the Kd [17, 51] of the same sequence?
The Kd was at least 20 µM.

And the Kd [45]?
Its Kd is at least 5 µM.

How did the Kd [46] turn out when YPGFGEHLI was run?
Its Kd is 1.89 µM.
